Common to all, as to assay: ELISA, coated antigen
The target of assay [1] is T1, cynomolgus CD40 antigen (ACROBiosystems) (cynomolgus, UniProt G7PG38 21-193).
T1 construct: Bought antigen coated on ELISA plates; construct not described
The procedure:
(§1) The binding ability of monoclonal antibody to human CD40, as well as the species specificity, was detected using an enzyme-linked immunosorbent assay (ELISA). The specific method is as follows: human CD40, cynomolgus CD40, rat CD40, and mouse CD40 antigens (all purchased from ACROBiosystems) were coated with 1 μg/mL carbonate buffer (pH=9.6) in an ELISA plate at 100 μL per well, followed by incubation at 4° C. overnight. The wells were washed 5 times with PBST. 300 μL/well of PBST containing 1% BSA was added to block the wells, and the plate was incubated at room temperature for 1 hour. The wells were washed 5 times with PBST. […] The wells were washed 5 times with PBST. […] The wells were washed 5 times with PBST. Colorimetric substrate TMB was added at 100 μL per well and allowed to develop color at room temperature for 10 minutes, followed by the addition of 1 M sulfuric acid to terminate the reaction. The OD₄₅₀ nm was read on a microplate reader to analyze the results, and the EC₅₀ was calculated using a 4-parameter fit binding curve.

Assay [2] has as its target T2, human CD40 antigen (ACROBiosystems) (human, UniProt P25942 21-193).
T2 construct: Bought antigen coated on ELISA plates; construct not described
The procedure:
as §1

The target in assay [3] is T3, mouse CD40 antigen (ACROBiosystems) (mouse, UniProt P27512 24-193, limits assumed).
T3 construct: Bought antigen coated on ELISA plates; construct not described
On the procedure:
as §1

Assay [4] addresses T4, rat CD40 antigen (ACROBiosystems) (rat, UniProt A6JXD6 20-193).
T4 construct: Bought antigen coated on ELISA plates; construct not described
T4 sequence: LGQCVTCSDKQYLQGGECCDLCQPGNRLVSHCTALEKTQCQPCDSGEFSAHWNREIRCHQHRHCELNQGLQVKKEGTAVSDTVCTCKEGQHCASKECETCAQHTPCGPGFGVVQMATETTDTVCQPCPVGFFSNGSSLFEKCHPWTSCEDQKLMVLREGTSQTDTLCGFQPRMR
The procedure:
as §1

T3 sequence (P27512 24-193 limits assumed): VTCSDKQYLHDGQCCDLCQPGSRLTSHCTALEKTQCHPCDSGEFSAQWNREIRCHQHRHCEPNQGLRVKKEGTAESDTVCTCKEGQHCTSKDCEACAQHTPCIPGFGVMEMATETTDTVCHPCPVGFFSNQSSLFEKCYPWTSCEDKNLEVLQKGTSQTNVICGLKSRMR
T2 sequence (P25942 21-193 limits assumed): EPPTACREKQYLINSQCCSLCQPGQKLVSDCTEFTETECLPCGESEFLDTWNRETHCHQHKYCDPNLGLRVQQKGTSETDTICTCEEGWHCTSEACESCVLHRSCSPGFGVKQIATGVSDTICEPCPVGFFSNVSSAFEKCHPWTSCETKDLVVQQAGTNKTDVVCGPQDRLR

B1: anti-CD40 monoclonal antibody 1653CD (antibody, human IgG2, kappa, V domains shown)
VH: EVQLVESGGGLVQPGGSLRLSCAASGFTFSDYYMSWVRQAPGKGLEWVGFIRNKANAYTTEYAASVKGRFTISRDNSKSTLYLQMNSLRAEDTAVYYCARYGGLKKGWYFDLWGQGTLVTVSS
VL: DIQMTQSPSSLSASVGDRVTITCRASQGIRNYLNWYQQKPGKAPKLLIYYTSSLQSGVPSRFSGSGSGTDYTLTISSLQPEDFATYYCQQGINLPWTFGGGTKVEIKR
Turning to B1, the EC50 in assay [1] turned out to be 0.018 nM; in assay [2], 0.02 nM. For the same molecule, the binding result in assay [3] and in assay [4] was “no binding” throughout.

B2: anti-CD40 monoclonal antibody 1608CD (antibody, human IgG2, kappa, V domains shown)
VH: EVQLVESGGGLVQPGGSLRLSCAASGFTFSNYYMSWVRQAPGKGLEWVGFIRNKANGYTTEYAASVKGRFTISRDNSKSTLYLQMNRLRAEDTAVYYCARYGGLKVGWYFDLWGQGTLVTVSS
VL: DIQMTQSPSSLSASVGDRVTITCRASQSISNYLAWYQQKPGKAPKLLIYAASSLQSGVPSRFSGSGSGTDYTLTISSLQPEDFATYYCQQGSSYPWTFGGGTKVEIKR
For the molecule B2, the results for the half-maximal effective concentration (EC50) in assay [1] and in assay [2] were 0.021 nM and 0.022 nM, respectively. Moreover, the binding result in assay [3] and in assay [4] was “no binding” throughout.

B3: anti-CD40 monoclonal antibody 1654CD (antibody, human IgG2, kappa, V domains shown)
VH: EVQLVESGGGLVQPGGSLRLSCAASGFTFSNYYMSWVRQAPGKGLEWVGFIRNKANAYTTEYAASVKGRFTISRDNSKSTLYLQMNRLRAEDTAVYYCARYGGLKVGWYFDLWGQGTLVTVSS
VL: DIQMTQSPSSLSASVGDRVTITCRASQSISNYLAWYQQKPGKAPKLLIYAASSLQSGVPSRFSGSGSGTDYTLTISSLQPEDFATYYCQQGSSYPWTFGGGTKVEIKR
Take B3: the EC50 in assay [1] amounted to 0.015 nM; in assay [2] it was 0.014 nM. Besides, the binding result in assay [3] and in assay [4] was “no binding” each time.

B4: anti-CD40 monoclonal antibody 1655CD (antibody, human IgG2, kappa, V domains shown)
VH: EVQLVESGGGLVQPGGSLRLSCAASGFTFSNYYMSWVRQAPGKGLEWVGFIRNKANAYTTEYAASVKGRFTISRDNSKSTLYLQMNSLRAEDTAVYYCARYGGLKIGWYFDLWGQGTLVTVSS
VL: DIQMTQSPSSLSASVGDRVTITCRASQTISSYLNWYQQKPGKAPKLLIYYTSTLQSGVPSRFSGSGSGTDYTLTISSLQPEDFATYYCQQGNAYPWTFGGGTKVEIKR
B4: the EC50 was determined as 0.009 nM in assay [1] and 0.024 nM in assay [2]. In addition, the binding result in assay [3] and in assay [4] was “no binding” in each case.

B5: anti-CD40 monoclonal antibody 1652CD (antibody, human IgG2, kappa, V domains shown)
VH: EVQLVESGGGLVQPGGSLRLSCAASGFTFSDYYMSWVRQAPGKGLEWVGFIRNKANAYTTEYAASVKGRFTISRDNSKNTLYLQMNSLRAEDTAVYYCARYGGLRQGWYFDVWGQGTLVTVSS
VL: DIQMTQSPSSLSASVGDRVTITCRASQDIRNYLNWYQQKPGKAPKLLIYYTSRRDSGVPSRFSGSGSGTDYTLTISSLQPEDFATYFCQQGKTLPWTFGGGTKVEIKR
For B5, the results for the EC50 in assay [1] and in assay [2] were 0.018 nM and 0.022 nM, respectively. Moreover, the binding result in assay [3] and in assay [4] was “no binding” each time.

B6: anti-CD40 monoclonal antibody 1609CD (antibody, human IgG2, kappa, V domains shown)
VH: EVQLVESGGGLVQPGGSLRLSCAASGFTFSNYYMSWVRQAPGKGLEWVGFIRNKANGYTTEYAASVKGRFTISRDNSKSTLYLQMNSLRAEDTAVYYCARYGGLKIGWYFDLWGQGTLVTVSS
VL: DIQMTQSPSSLSASVGDRVTITCRASQTISSYLNWYQQKPGKAPKLLIYYTSTLQSGVPSRFSGSGSGTDYTLTISSLQPEDFATYYCQQGNAYPWTFGGGTKVEIKR
As to B6, the EC50 in assay [1] was 0.02 nM; in assay [2] it was 0.022 nM. For the same molecule, the binding result in assay [3] and in assay [4] was “no binding” each time.

B7: anti-CD40 monoclonal antibody 1607CD (antibody, human IgG2, kappa, V domains shown)
VH: EVQLVESGGGLVQPGGSLRLSCAASGFTFSDYYMSWVRQAPGKGLEWVGFIRNKANGYTTEYAASVKGRFTISRDNSKSTLYLQMNSLRAEDTAVYYCARYGGLKKGWYFDLWGQGTLVTVSS
VL: DIQMTQSPSSLSASVGDRVTITCRASQGIRNYLNWYQQKPGKAPKLLIYYTSSLQSGVPSRFSGSGSGTDYTLTISSLQPEDFATYYCQQGINLPWTFGGGTKVEIKR
For the molecule B7, the concentration giving a half-maximal response (EC50) in assay [1] was determined as 0.017 nM; in assay [2] it was 0.021 nM. The binding result in assay [3] and in assay [4] was “no binding” in each case.

B8: anti-CD40 monoclonal antibody 1606CD (antibody, human IgG2, kappa, V domains shown)
VH: EVQLVESGGGLVQPGGSLRLSCAASGFTFSDYYMSWVRQAPGKGLEWVGFIRNKANGYTTEYAASVKGRFTISRDNSKNTLYLQMNSLRAEDTAVYYCARYGGLRQGWYFDVWGQGTLVTVSS
VL: DIQMTQSPSSLSASVGDRVTITCRASQDIRNYLNWYQQKPGKAPKLLIYYTSRRDSGVPSRFSGSGSGTDYTLTISSLQPEDFATYFCQQGKTLPWTFGGGTKVEIKR
B8: the figures for the EC50 in assay [1] and in assay [2] were 0.02 nM and 0.024 nM, respectively. Further, the binding result in assay [3] and in assay [4] was “no binding” in each case.

B9: anti-CD40 monoclonal antibody 1605CD (antibody, human IgG2, kappa, V domains shown)
VH: EVQLVESGGGLVQPGGSLRLSCAASGFTFSNYYMSWVRQAPGKGLEWVAFIRNKANAYTTEYAASVKGRFTISRDNSKSTLYLQMNSLRAEDTAVYYCARYGGIRVGWYFDLWGQGTLVTVSS
VL: DIQMTQSPSSLSASVGDRVTITCRASQDIRNYLNWYQQKPGKAPKLLIYYTSRLQSGVPSRFSGSGSGTDYTLTISSLQPEDFATYYCQQGQSFPWTFGGGTKVEIKR
With B9, the EC50 was 0.021 nM in assay [1] and 0.022 nM in assay [2]. Further, the binding result in assay [3] and in assay [4] was “no binding” in each case.

These data come from US20250376533A1 (FUTUREGEN BIOPHARMACEUTICAL BEIJING, published 2025).
